Source: PMC10786891, “Massively parallel profiling of RNA-targeting CRISPR-Cas13d”
Substitutions are numbered along the chain they refer to. Names and notes keep the numbering of the source.

T1: EsCas13d, nuclease-dead (Eubacterium siraeum, UniProt B0MS50, R295A;H300A;R849A;H854A)
T1 sequence: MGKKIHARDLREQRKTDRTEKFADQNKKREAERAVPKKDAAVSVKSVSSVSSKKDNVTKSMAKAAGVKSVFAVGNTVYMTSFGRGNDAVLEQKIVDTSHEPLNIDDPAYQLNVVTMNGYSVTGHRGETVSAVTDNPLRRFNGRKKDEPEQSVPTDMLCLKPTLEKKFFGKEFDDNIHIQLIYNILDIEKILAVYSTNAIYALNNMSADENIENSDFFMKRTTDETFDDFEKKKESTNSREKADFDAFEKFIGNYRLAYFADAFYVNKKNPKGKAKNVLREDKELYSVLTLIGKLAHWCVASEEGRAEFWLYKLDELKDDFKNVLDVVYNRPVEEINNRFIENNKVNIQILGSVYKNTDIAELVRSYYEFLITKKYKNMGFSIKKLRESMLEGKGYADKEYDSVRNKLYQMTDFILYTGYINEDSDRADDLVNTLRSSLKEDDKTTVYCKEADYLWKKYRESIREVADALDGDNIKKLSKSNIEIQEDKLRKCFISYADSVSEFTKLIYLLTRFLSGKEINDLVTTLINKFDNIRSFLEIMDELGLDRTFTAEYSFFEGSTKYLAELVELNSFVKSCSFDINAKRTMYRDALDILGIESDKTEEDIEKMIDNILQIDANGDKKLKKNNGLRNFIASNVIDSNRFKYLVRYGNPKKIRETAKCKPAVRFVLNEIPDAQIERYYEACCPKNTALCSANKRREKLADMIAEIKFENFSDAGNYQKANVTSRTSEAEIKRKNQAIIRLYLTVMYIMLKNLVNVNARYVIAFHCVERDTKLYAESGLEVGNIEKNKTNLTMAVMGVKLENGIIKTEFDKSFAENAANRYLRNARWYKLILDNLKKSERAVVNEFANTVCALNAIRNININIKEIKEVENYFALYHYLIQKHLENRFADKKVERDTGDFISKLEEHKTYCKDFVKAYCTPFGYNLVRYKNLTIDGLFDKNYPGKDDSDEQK

B1: target 3 U2C,G14A (mixed)
RNA 1: CACCCGUGCAAAAUUGCAGGGGUCUAAAACGACCUGAAUAUUUCAGAUCAAA
RNA 2: GGGAAUGGAUCCACAUCUACGAAUUCGUUUUUGAUCUAAAAUAUUCAGGCCUGCAGAUCGGAAGAGCACACGU
B2: target 3 U8C (mixed)
RNA 1: B1 RNA 1
RNA 2: B1 RNA 2 with A38G, U44C, C50U
B3: target 3 insG 3' of 8,insA 3' of 7 (mixed)
RNA 1: B1 RNA 1
RNA 2: GGGAAUGGAUCCACAUCUACGAAUUCGUUUUUGAUCUGAAAUAUGUACAGGUCUGCAGAUCGGAAGAGCACACGU
B4: target 3 insU 3' of 4,insG 3' of 1 (mixed)
RNA 1: B1 RNA 1
RNA 2: B3 RNA 2 with G45U, U46C, C48G, A49U, G51U, U52C, C53G
B5: target 3 insA 3' of 7,insU 3' of 5 (mixed)
RNA 1: B1 RNA 1
RNA 2: B3 RNA 2 with G45U, U46A, A47C, C48A, A49U
B6: target 3 insA 3' of 22,insC 3' of 5 (mixed)
RNA 1: B1 RNA 1
RNA 2: GGGAAUGGAUCCACAUCUACGAAUUCGUUUAUUGAUCUGAAAUAUUCACGGUCUGCAGAUCGGAAGAGCACACGU
B7: target 3 A5C,U22A (mixed)
RNA 1: B1 RNA 1
RNA 2: B1 RNA 2 with U30A, A38G, A47C, C50U
B8: target 3 insC 3' of 9,insG 3' of 8 (mixed)
RNA 1: B1 RNA 1
RNA 2: B3 RNA 2 with U44C, G45U, U46G, A47U
B9: target 3 insU 3' of 4,insU 3' of 1 (mixed)
RNA 1: B1 RNA 1
RNA 2: B3 RNA 2 with G45U, U46C, C48G, A49U, G51U, U52C, C53U
B10: target 3 insG 3' of 6,insA 3' of 4 (mixed)
RNA 1: B1 RNA 1
RNA 2: B3 RNA 2 with G45U, U46C, A47G, C48A, A49G, G50A
B11: target 3 complement block 4-9 (mixed)
RNA 1: B1 RNA 1
RNA 2: B1 RNA 2 with A38G, A43U, U44A, U45A, C46G, A47U, G48C, C50U
B12: target 3 insA 3' of 21 (mixed)
RNA 1: B1 RNA 1
RNA 2: GGGAAUGGAUCCACAUCUACGAAUUCGUUUUAUGAUCUGAAAUAUUCAGGUCUGCAGAUCGGAAGAGCACACGU
B13: target 3 insC 3' of 5,insA 3' of 4 (mixed)
RNA 1: B1 RNA 1
RNA 2: B3 RNA 2 with G45U, U46C, A49G, G50A
B14: target 3 insG 3' of 7,insA 3' of 7 (mixed)
RNA 1: B1 RNA 1
RNA 2: B3 RNA 2 with G45U, U46G
B15: target 3 G4C,A12C (mixed)
RNA 1: B1 RNA 1
RNA 2: B1 RNA 2 with A38G, A40C, G48C, C50U
B16: target 3 insC 3' of 8,insG 3' of 6 (mixed)
RNA 1: B1 RNA 1
RNA 2: B3 RNA 2 with G45C, A47C, C48G
B17: target 3 insA 3' of 7 (mixed)
RNA 1: B1 RNA 1
RNA 2: GGGAAUGGAUCCACAUCUACGAAUUCGUUUUUGAUCUGAAAUAUUACAGGUCUGCAGAUCGGAAGAGCACACGU
B18: target 3 insC 3' of 22,insU 3' of 3 (mixed)
RNA 1: B1 RNA 1
RNA 2: B6 RNA 2 with A31C, C49G, G51U
B19: target 3 insU 3' of 16,insU 3' of 4 (mixed)
RNA 1: B1 RNA 1
RNA 2: B6 RNA 2 with A31U, U33G, G34A, A35U, U36C, C37U, C49G, G50U
B20: target 3 complement block 5-8 (mixed)
RNA 1: B1 RNA 1
RNA 2: B1 RNA 2 with A38G, U44A, U45A, C46G, A47U, C50U
B21: target 3 insU 3' of 4,insC 3' of 4 (mixed)
RNA 1: B1 RNA 1
RNA 2: B3 RNA 2 with G45U, U46C, C48G, A49U, G50C
B22: target 3 insU 3' of 22,insC 3' of 9 (mixed)
RNA 1: B1 RNA 1
RNA 2: B6 RNA 2 with A31U, U45C, C47U, A48C, C49A
B23: target 3 insA 3' of 14,insG 3' of 5 (mixed)
RNA 1: B1 RNA 1
RNA 2: B3 RNA 2 with U42A, A43U, U44A, G45U, A47C, C48A, A49G
B24: target 3 insA 3' of 21,insU 3' of 4 (mixed)
RNA 1: B1 RNA 1
RNA 2: B6 RNA 2 with A31U, U32A, C49G, G50U
B25: target 1 C6A,U11G (mixed)
RNA 1: CACCCGUGCAAAAAUGCAGGGGUCUAAAACUGAGCGGAUAACCUCUCUAUGG
RNA 2: GGGAAUGGAUCCACAUCUACGAAUUCGUACCAUAGAGAGGGUAUCAGCUCACCGAGAUCGGAAGAGCACACGU
B26: target 1 C6G,C22A (mixed)
RNA 1: B25 RNA 1
RNA 2: B25 RNA 2 with C30A, G41U, A46G
B27: target 1 A1U,U8A (mixed)
RNA 1: B25 RNA 1
RNA 2: B25 RNA 2 with G41U, U44A, A46C, A51U

Molecular target: T1, EsCas13d, nuclease-dead
Experiment: crRNA (strand 1, pre-loaded); Mg2+; 40 mM Tris-HCl pH 7.5, 150 mM NaCl, 6 mM MgCl2, 1 mM DTT, 0.1% Tween-20, 0.2 mg/ml BSA; 25 C; 10 min per concentration, then washed
Details: tags: His6-TwinStrep-SUMO cleaved; N-terminal SNAP kept (SNAP-Surface 488); label: 3' end held by stalled T7 RNA polymerase

Binder	Kd
B1	~64.5 nM
B2	30.4 ± 2.25 nM
B3	42 ± 6 nM
B4	43 ± 11.5 nM
B5	15.7 ± 1.3 nM
B6	24.9 ± 3.35 nM
B7	60.5 ± 10.5 nM
B8	82.5 ± 12.5 nM
B9	37 ± 7 nM
B10	12.3 ± 1.1 nM
B11	67.5 ± 18 nM
B12	33.5 ± 4.5 nM
B13	9.8 ± 0.9 nM
B14	39.5 ± 5 nM
B15	95 ± 30 nM
B16	79.5 ± 20.5 nM
B17	44 ± 8.5 nM
B18	58 ± 10 nM
B19	37 ± 7 nM
B20	60.5 ± 6 nM
B21	19.5 ± 2.5 nM
B22	82.5 ± 21.5 nM
B23	105 ± 31 nM
B24	11.9 ± 2.1 nM
B25	10.8 ± 0.4 nM
B26	14.7 ± 1 nM
B27	26.7 ± 1.3 nM
